This note sets out measurements from patent publication US20210040206A1.

Test [1] deals with human SIRPa expressed by blood monocytes of heterozygous V1/V2 donors (cells carry both SIRPa v1 and SIRPa v2). Briefly: FACS competition on human monocytes of V1/V2 donors; blocked ligand: biotinylated CD47Fc, revealed with streptavidin-PE.
Test [2] has the same target. The test is described as follows: flow cytometry competition, recombinant CD47-Fc on heterozygous V1/V2 monocytes (n=5).
In test [3] the target is SIRPa v2 (antigen of the ELISA of FIG. 9B) (human) (UniProt P78324). Briefly: ELISA against SIRPa v2; given as ED50. Background: In an ELISA, binding on a coated surface is turned into a signal by an enzyme label.
The target of test [4] is SIRPa V1 recombinant protein (extracellular domain fused with mouse Fc from IgG2a) (human; mouse) (UniProt P78324). The test is described as follows: ELISA on immobilised SIRPa variant-mouse Fc, donkey anti-human IgG peroxidase, TMB 450 nm; given as ED50.
For the next test, the target named is SIRPv2 (human;mouse) (UniProt P78324). The description is as above.
The target of test [5] is SIRPa V6 (SNP12 + 13) recombinant protein, extracellular domain fused with mouse Fc from IgG2a (human; mouse) (UniProt P78324). The test is described as above.
The target in test [6] is SIRPa V3 (SNP1 + 2 + 3 + 4 + 5 + 6) recombinant protein, extracellular domain fused with mouse Fc from IgG2a (human; mouse) (UniProt P78324). Described as above.
Test [7] has as its target SIRPa V5 (SNP9 + 10 + 11) recombinant protein, extracellular domain fused with mouse Fc from IgG2a (human; mouse) (UniProt P78324). The description is as above.
For test [8], the target named is SIRPa V8 (SNP15 + 16) recombinant protein, extracellular domain fused with mouse Fc from IgG2a (human; mouse) (UniProt P78324). Described as above.
Test [9] addresses SIRPa V4 (SNP8) recombinant protein, extracellular domain fused with mouse Fc from IgG2a (human; mouse) (UniProt P78324). The test is described as above.
In test [10] the target is SIRPa V7 (SNP14 + ?) recombinant protein, extracellular domain fused with mouse Fc from IgG2a (human; mouse) (UniProt P78324). Described as above.
SIRPa V7 (SNP14 + ?) recombinant protein, extracellular domain fused with mouse Fc from IgG2a (human; mouse), sequence (P78324 31-373 R107S/G109S limits assumed): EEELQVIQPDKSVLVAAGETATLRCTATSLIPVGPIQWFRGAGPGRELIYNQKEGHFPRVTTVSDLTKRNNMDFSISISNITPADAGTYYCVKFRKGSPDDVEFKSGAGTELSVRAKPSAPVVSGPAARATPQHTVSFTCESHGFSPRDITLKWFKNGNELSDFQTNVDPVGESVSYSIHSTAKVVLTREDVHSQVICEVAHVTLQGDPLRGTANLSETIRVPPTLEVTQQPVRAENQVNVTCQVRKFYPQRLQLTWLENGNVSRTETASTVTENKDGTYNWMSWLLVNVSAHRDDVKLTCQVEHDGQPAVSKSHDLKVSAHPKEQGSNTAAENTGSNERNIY

SIRPa v2 (antigen of the ELISA of FIG. 9B) (human), sequence (P78324 other isoform, or with tags, fused parts or gaps limits assumed): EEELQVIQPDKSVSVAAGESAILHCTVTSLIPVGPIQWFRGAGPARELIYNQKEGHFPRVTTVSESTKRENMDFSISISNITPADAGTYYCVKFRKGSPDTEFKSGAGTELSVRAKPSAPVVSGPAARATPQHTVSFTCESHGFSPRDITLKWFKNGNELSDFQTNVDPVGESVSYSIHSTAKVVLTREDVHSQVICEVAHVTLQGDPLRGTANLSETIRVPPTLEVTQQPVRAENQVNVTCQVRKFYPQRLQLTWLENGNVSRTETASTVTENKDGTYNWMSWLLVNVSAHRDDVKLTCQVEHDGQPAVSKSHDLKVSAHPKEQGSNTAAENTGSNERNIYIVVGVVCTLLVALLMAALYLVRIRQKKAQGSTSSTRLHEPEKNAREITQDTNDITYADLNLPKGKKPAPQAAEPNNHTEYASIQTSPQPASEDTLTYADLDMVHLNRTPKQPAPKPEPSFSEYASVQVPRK
SIRPa V3 (SNP1 + 2 + 3 + 4 + 5 + 6) recombinant protein, extracellular domain fused with mouse Fc from IgG2a (human; mouse), sequence (P78324 other isoform, or with tags, fused parts or gaps limits assumed): as the sequence (P78324 31-373 R107S/G109S limits assumed) above, with L14S, T20S, T22I, R24H, A27V, S77R, S79G counted along it
SIRPa V4 (SNP8) recombinant protein, extracellular domain fused with mouse Fc from IgG2a (human; mouse), sequence (P78324 31-373 G75A limits assumed): as the sequence (P78324 31-373 R107S/G109S limits assumed) above, with G45A, S77R, S79G counted along it
SIRPv2 (human;mouse), sequence (P78324 31-373): as the sequence (P78324 31-373 R107S/G109S limits assumed) above, with S77R, S79G counted along it
SIRPa V1 recombinant protein (extracellular domain fused with mouse Fc from IgG2a) (human; mouse), sequence (P78324 31-373 limits assumed): as the sequence (P78324 31-373 R107S/G109S limits assumed) above, with S77R, S79G counted along it
SIRPa V6 (SNP12 + 13) recombinant protein, extracellular domain fused with mouse Fc from IgG2a (human; mouse), sequence (P78324 31-373 N100E limits assumed): as the sequence (P78324 31-373 R107S/G109S limits assumed) above, with N70E, S77R, S79G counted along it
SIRPa V5 (SNP9 + 10 + 11) recombinant protein, extracellular domain fused with mouse Fc from IgG2a (human; mouse), sequence (P78324 31-373 D95E/L96S limits assumed): as the sequence (P78324 31-373 R107S/G109S limits assumed) above, with D65E, L66S, S77R, S79G counted along it

B1: in-house anti-human SIRPa v1 antibody (antibody, human IgG4, V domains shown)
VH: EVQLVQSGAEVKKPGESLRISCKASGYSFTSYWVHWVRQMPGKGLEWMGNIDPSDSDTHYSPSFQGHVTLSVDKSISTAYLQLSSLKASDTAMYYCVRGGTGTLAYFAYWGQGTLVTVSS
VL: DVVMTQSPLSLPVTLGQPASISCRSSQSLVHSYGNTYLYWFQQRPGQSPRLLIYRVSNRFSGVPDRFSGSGSGTDFTLKISRVEAEDVGVYYCFQGTHVPYTFGGGTKVEIK
B1 displayed an IC50 (read off the curve) in test [1] of 0.1 µg/mL. Moreover, the reduction of CD47-Fc binding in test [2] is 50%.

B2: chimeric 18D5 antibody (antibody, from a related filing, V domains shown)
VH: QVQLQQPGAELVRPGSSVKLSCKASGYTFTSYWVHWVKQRPIQGLEWIGNIDPSDSDTHYNQKFKDKASLTVDKSSSTAYMQLSSLTFEDSAVYYCVRGGTGTMAWFAYWGQGTLVTVSA
VL: DVVMTQTPLSLPVSLGDQASISCRSSQSLVHSYGNTYLYWYLQKPGQSPKLLIYRVSNRFSGVPDRFSGSGSGTDFTLKISRVEAEDLGVYFCFQGTHVPYTFGSGTKLEIKR
What is called EC50 is the concentration at which the effect is half-maximal. Turning to B2, the EC50 in test [3] came to 5.72 µg/mL.

B3: Kwar antibody (antibody, from a related filing, V domains shown)
VH: EVQLQQSGAELVKPGASVKLSCTASGFNIKDYYIHWVQQRTEQGLEWIGRIDPEDGETKYAPKFQDKATITADTSSNTAYLHLSSLTSEDTAVYYCARWGAYWGQGTLVTVSS
VL: QIVLTQSPAIMSASPGEKVTLTCSASSSVSSSYLYWYQQKPGSSPKLWIYSTSNLASGVPARFSGSGSGTSYSLTISSMEAEDAASYFCHQWSSYPRTFGAGTKLELK
In the case of B3, the EC50 in test [4] turned out to be 0.77 ng/mL; in the test with SIRPv2 (human;mouse), 0.77 ng/mL; in test [5], 0.75 ng/mL; in test [6] it was 0.77 ng/mL; in test [7] it was 0.78 ng/mL; in [8], 0.93 ng/mL. Besides, the values for the EC50 in test [9] and in [10] were 0.74 ng/mL and 0.6 ng/mL, respectively.
